Test results as given in paper PMC9170038, “Crowdsourced RNA design discovers diverse, reversible, efficient, self-contained molecular switches”.

B1: Eterna 8125 (Exclusion 4) (ssRNA)
RNA: GUGAAGUGAGGAUAUACGAGAGAGGCUGAACCGGACGAGAAGUAGAAGGCACAUGAGGAUCACCCAUGUACGGG
B2: Eterna 15969 (Sensor v3, turn-off variant 2) (ssRNA)
RNA: AAGUACCGUCACGAUAGUGAUGGUACAACAAGCAAAUGUACAUGAGGAUCACCCAUGUCCUCUUUUGCUCGUCUUGU
B3: Eterna 6454516 (Inverted Same State NG 3) (ssRNA)
RNA: AAACACGGACAUGAGGAUCACCCAUGUGGCGAAAGCCUUGGAAGAAGGCCGAUUGCAAAGCAAUCGGAGGAUAUUCAUACCGUG
B4: Eterna 1023 (Exclusion - FMN A) (ssRNA)
RNA: GUCCAUGUCCUCAUUCGUGCACUGGACACCAAGGAUAUGUUUAUGGACAGAAGGUGGUUGGGUCAGUGAUGUUGAUAUAAUUAGU
B5: Eterna 7710481 (Same State - Theophylline B) (ssRNA)
RNA: GGAGGUUGGUGCGAUACCAGACCAGCAGUGAUGUUGCGCCAAAGUGAGUGAUGUUCACCGGUCCCUUGGCAGCGCAUUCCUUUAG
B6: Eterna 11606 (Exclusion 1) (ssRNA)
RNA: UUUUAACAUGAGGAUCACCCAUGUGAGGAUAUCGAUAUUUUUAUUAAUAUUAAUAAAACGAGAAGGCACAUUUU
B7: Eterna 6428636 (Exclusion NG 3) (ssRNA)
RNA: AGGUAUCCUGAGAAAUUUCUCCACAUGAGGAUCACCCAUGUAGAGGAUAUCGACGCUGUGCGGUUCGAGAAGGCUACACUAAAA
B8: Eterna 6447203 (Exclusion NG 2) (ssRNA)
RNA: AUCAGCUCGUCAGGAUAUACGUAACUGCGUCAGCAGUGUGGUAAGAUCACAUGAGGAUCACCCAUGUAGAAGGGACGAGCUGAU
B9: Eterna 6443507 (Inverted Exclusion NG 1) (ssRNA)
RNA: CGAACCAUGUAGAAGGCUGUCUUAAAAUAGGACAGAGGAUAUACAUGAGGAUCACCCAUGUACUCCUUUAAAAGGUUCGAAAUA
B10: Eterna 12594 (Exclusion 3) (ssRNA)
RNA: AACGAUCUAGGAUAUACAUGAGGAUCACCCAUGUAAGAGCCCAAACCAGGCUCCCUCUGUAGAAGGAGGUCAAA
B11: Eterna 9265 (Exclusion 1) (ssRNA)
RNA: CCGUCACAUGAGGAUCACCCAUGUCAGGAUAUCUAUCAUAGCAUCGAAAGAUGCGGGUAGAGAAGGGACUAUCC
B12: Eterna 6063240 (Exclusion 4) (ssRNA)
RNA: GUUUCGUCAGGAUAUGUGGCUUCGAUCGUGCGAAGAAGGCUACAGAAGGCACAUGAGGAUCACCCAUGUUCGUC
B13: Eterna 6429242 (Inverted Exclusion NG 1) (ssRNA)
RNA: UCCGCAUCUGAGAAGGGAUCUCCGCGGAAGGGAUCAGGAUAUCGGACAUGAGGAUCACCCAUGUGCCGUUAAAGGACACCUGGU
B14: Eterna 5503477 (Same State 1) (ssRNA)
RNA: AAGAAACAUGAGGAUCACCCAUGUAAGAUAAACACAGGAUAUGCGAAUAAAAUAAAUAAAGCAGAAGGGUGAAGAA
B15: Eterna 7710586 (Same State - Theophylline B) (ssRNA)
RNA: UCUGGUAUAUCUGAUACCAGAGUAUAGUAUCAAUUGCAUAUCCGCAGUGAUGUUGCGGAACUCCCUUGGCAGCAGAUCUAUCUCU
B16: Eterna 6398795 (Exclusion NG 1) (ssRNA)
RNA: CCUGCACCUCAAGGAUAUCCAGUCGAAACGACUGGAGAAGGUGAGGAUCACCCAUCUAGCCUGACGAAAGUCAGGCAUGCAGGA
B17: Eterna 6407693 (Inverted Exclusion NG 2) (ssRNA)
RNA: UCAGGCUUCGAGAAGGACAUGAAUCGUAGCAUUGCUACGAUGAAUUAUACAUGAGGAUCACCCAUGUAGGAUAUCGGAGUCUGC
B18: Eterna 7687503 (Exclusion - Theophylline A) (ssRNA)
RNA: UGUAUGUGUCAGCGAGUGAUGUUCGACGAUACCAGACUCGAUAGAGUCCCUUGGCAGCGUAAUGCAUGCCAAACUGGCACAUACU
B19: Eterna 7710185 (Exclusion - Tryptophan A) (ssRNA)
RNA: AGCUCGCAUCCUCUAGCGUCAAAGACGCCUCGAGGACCGGUACGGCCGCCACUCGAGAUGAGGAUCACCCAUCUCAAAGCGAGCA
B20: Eterna 7692142 (Exclusion - FMN A) (ssRNA)
RNA: UUAUAUACGAGUGAUGUUCGUUAUUUAUCAGAGGAUAUGCUUAAAUGCAGAAGGCUGUUUUUCUAUUUGAUAUUAAAUUUUAUAA
B21: Eterna 7696419 (Exclusion - Arginine B) (ssRNA)
RNA: AAUGUACAGGGAAGGAGCGUAGUCCAGUGAUGUUGGAGUUAAAUACCAGUGAUGUUGGUUAUACAGGUAGGUCGCCCUAAAGUGC
B22: Eterna 6458016 (Inverted Same State NG 1) (ssRNA)
RNA: CGCUACACCCAGAAGGACAUGAGGAUCACCCAUGUAGGAUAUGGGAGACACAGUCCCAUGUAGAGAAAUUACGCUAGUGUAGCG
B23: Eterna 7673438 (Same State - Arginine B) (ssRNA)
RNA: UGUAUGGACUGAAGGAGCGGGUUGAUAUCAUGAGGAUCACCCAUGGAAAAGGCGAAAGCCGCCCAGGUAGGUCGCAGUCCAUACU
B24: Eterna 7673392 (Same State - Arginine B) (ssRNA)
RNA: UGUAUGGACUGAAGGAGCGGGUUGAUAACCUGAGGAUCAUCCAGGUAAAAGGCGAAAGCCACCCAGGUAGGUCGCAGUCCAUACU
B25: Eterna 7632613 (Same State - Theophylline B) (ssRNA)
RNA: GGGUGUGAUCCGGAUACCAGCGAACAUGAGGAUCACCCAUGUGACCUGAGAUCGGCUCUACGCCCUUGGCAGCCGCGGUCGCAGG
B26: Eterna 6150223 (Exclusion NG 3) (ssRNA)
RNA: AUUAUGACCGAGUUAUGCUUCAAAACAUGAGGAUCACCCAUGUAGGAUAUCAGCACGAUAAGUGCUGAGAAGGACAUCUCGGUC
B27: Eterna 7734801 (Same State - FMN B) (ssRNA)
RNA: UGUACCGAGUCAGGAUAUGUCGUCGAAAGACGAAUCCUAGUGAUGUUAGGGAUCUGCGAAAGCAGUGCAGAAGGGACUUGGUACU
B28: Eterna 7697814 (Same State - Tryptophan B) (ssRNA)
RNA: AGUAGUUGGACGGCCGCCACUGGAACAGCUUUGCCAAAGGCAGAGCACUAGAGUGAUGUUCUAGCUAGGACCGGGUCCAACUACA
B29: Eterna 7697025 (Exclusion - Arginine B) (ssRNA)
RNA: UGAUAGGACAGAAGGAGCGGAAGUGAUGUUUCCAAUGGAUAAAAGGUGUCAAAGACACCCUUCCAGGUAGGUCGCUGUCCUAUCU
B30: Eterna 6121278 (Same State NG 1) (ssRNA)
RNA: UCACUCAAGUUAGGAUAUGGAUCGGAAAACGAUCCAGAAGGAACAUGAAAACAUGAGCAUCAGCCAUGUUCCAGAAACGAGUGA
B31: Eterna 6121478 (Same State NG 1) (ssRNA)
RNA: GCACUCAAGUUAGGAUAUGGAUCGGAAACCGAUCCAGAAGGAACACAAUAACAUGAGCAUCAGCCGUGUUCCAGAAACGAGUGC
B32: Eterna 6421601 (Exclusion NG 3) (ssRNA)
RNA: GGUACUCAAAGAGUACCAAAACGAACAUGAGGAUCACCCAUGUAGGAUAUGCUACUCAAAGAGUAGCAGAAGGACAUGUGCCUA
B33: Eterna 7755228 (Same State - Theophylline A) (ssRNA)
RNA: AAAAUAAAUCAGUGAUGUUGGUAUCCGGAUACCAGCGAUAAUCAUCGCCCUUGGCAGCCGCGGACGUACAAAAUAAGUACGUCCU
B34: Eterna 6374082 (Exclusion NG 1) (ssRNA)
RNA: CGGUGACGUGUAGGAUAUGGCGCUGGGUUUUGGCCAGAAGGACAUGAGGAUCACCCAUGUGGUAGAGGGCUGGCGGCCGCCCGU
B35: Eterna 7770355 (Exclusion - Tryptophan A) (ssRNA)
RNA: GGUGUUGUUUGUGCUGUUUUCCUCGUUCCUCGAGGACCGGUACGGCCGCCACUCGAGUGAUGUUUGGGUAGCGAUCCUUGUUAGU
B36: Eterna 6117498 (Same State NG 2) (ssRNA)
RNA: AAAACAUACCGAGGAUAUUCAUAUAAUAAAUAAACAUGAGGAUCACCCAUUUGGCAAAAGCCUAGGGAGAAGGCGGAAUGCUAA
B37: Eterna 7684764 (Exclusion - Tryptophan B) (ssRNA)
RNA: AAUAAAAUCACGGCCGCCACUGAUGUUAAUAUUAGCAGUGAUGUUGCUAUGUCGUUUUUAUUUAACAGGACCGGGUGAAUAUUUA
B38: Eterna 7730540 (Same State - FMN A) (ssRNA)
RNA: AGCGAGUGAUGUUCGCUGAUCAUGUGAAGUUAGGAUAUAUACUUGCAUAGAAGGAACUAUUACAUGACAUUAGAGGCAGUAGUUC
B39: Eterna 5973727 (Sensor, turn-off variant 1) (ssRNA)
RNA: CCGUGCACGCUGCGCUCCUACAUGAGGAUCACCCAUGUGGUCCGGUGGCGUGGGUCGCCGGACUUGGCUCGUCUUGU
B40: Eterna 7692481 (Exclusion - Theophylline B) (ssRNA)
RNA: UUAGUUGAAAGUGAUACCAGACGAGUGAAGGGAAGAAAUUAAGUUGGAGUGAUGUUCCGCGUCCCUUGGCAGCACUUUGUAAUUU
B41: Eterna 7696031 (Exclusion - Tryptophan B) (ssRNA)
RNA: UGAUACCAGACGGCCGCCACUACACCAGUCAAAGACUGGAUGUGAAAUUCGACCAGUGAUGUUGGUAGGACCGGGUCUGGUAUCU

Molecular target: MS2 coat protein, dlFG mutant (Escherichia phage MS2, UniProt P03612, del68-81insG)
Assay: 4 mM Mg2+; no ligand; RNA-MaP array; 100 mM Tris-HCl pH 7.5, 80 mM KCl, 4 mM MgCl2, 0.1 mg/mL BSA, 1 mM DTT, 0.01 mg/mL yeast tRNA, 0.01% Tween-20; protein 1.5 nM to 3 uM; 37 C (Table S3)
Conditions: chain copies: 2; label: tethered by stalled RNA polymerase

Point of comparison: B32, Kd 18.5 nM. Against it:
- B1 — 11-fold higher, 208 nM
- B2 — 9-fold higher, 166 nM
- B3 — within 1.5-fold, 13.8 nM
- B4 — higher, > 3000 nM
- B5 — higher, > 3000 nM
- B6 — 3.7-fold higher, 68 nM
- B7 — 3.1-fold lower, 5.95 nM
- B8 — 2.8-fold higher, 51.7 nM
- B9 — 3.7-fold lower, 5.01 nM
- B10 — 2.4-fold higher, 44.9 nM
- B11 — within 1.5-fold, 19.2 nM
- B12 — 1.8-fold higher, 34.2 nM
- B13 — 3.1-fold lower, 6.05 nM
- B14 — 2.8-fold higher, 51.2 nM
- B15 — higher, > 3000 nM
- B16 — 20-fold higher, 368 nM
- B17 — 3.2-fold lower, 5.71 nM
- B18 — higher, > 3000 nM
- B19 — 10-fold higher, 190 nM
- B20 — higher, > 3000 nM
- B21 — higher, > 3000 nM
- B22 — 9-fold higher, 166 nM
- B23 — within 1.5-fold, 20 nM
- B24 — 15-fold higher, 279 nM
- B25 — 1.5-fold lower, 12.2 nM
- B26 — within 1.5-fold, 14.7 nM
- B27 — higher, > 3000 nM
- B28 — higher, > 3000 nM
- B29 — higher, > 3000 nM
- B30 — 4.2-fold higher, 77.6 nM
- B31 — 25-fold higher, 463 nM
- B33 — higher, > 3000 nM
- B34 — within 1.5-fold, 15.7 nM
- B35 — higher, > 3000 nM
- B36 — 53-fold higher, 974 nM
- B37 — higher, > 3000 nM
- B38 — higher, > 3000 nM
- B39 — 5-fold higher, 92.3 nM
- AAAACAUGAGGAUCACCCAUGUAAA (ssRNA) [Eterna 1 (MS2 control)] — within 1.5-fold, 12.8 nM
- B40 — higher, > 3000 nM
- B41 — higher, > 3000 nM
